Laboratory results published in patent publication US20260242478A1 (published 2026).
Where no end group is shown, it is not given here.

B1: Phage-1957 (peptide)
peptide: LENWCIPAWMCSGF
B2: Phage-1932 (peptide)
peptide: DFKWCTPMWMCEHL
notes: Clonal phage of the Peptide-180 library, tested as crude supernatant; not shown: fused to the pIII filament protein of the bacteriophage
B3: Phage-1939 (peptide)
peptide: VEKLCRPSWMCEHM
B4: Phage-1925 (peptide)
peptide: TEMWCKPAWMCTGF
notes: as for B2
B5: Phage-1929 (peptide)
peptide: AEKWCIPAWMCEAM
notes: as for B2
B6: Phage-1951 (peptide)
peptide: AEHWCIPSWMCAGF
modifications: cysteine pairing not given here; also: displayed as fusion to phage pIII
B7: Phage-1927 (peptide)
peptide: WENWCTPAWMCSHM
notes: as for B2
B8: Phage-1952 (peptide)
peptide: MPKWCTPAWMCAHQ
modifications: cysteine pairing not given here; also: displayed as fusion to phage pIII
B9: Phage-1923 (peptide)
peptide: VEKWCIPTWMCELS
notes: as for B2
B10: Phage-1931 (peptide)
peptide: WDRLCTPAWMCTGF
notes: as for B2
B11: Phage-1945 (peptide)
peptide: WENWCTPRWMCEGF
B12: Phage-1949 (peptide)
peptide: DIKLCMPEWMCLGF
B13: Phage-1926 (peptide)
peptide: FAKWCTPEWMCVGF
notes: as for B2
B14: Phage-1935 (peptide)
peptide: VEKLCKPIWMCNWQ
notes: as for B2
B15: Phage-1928 (peptide)
peptide: ELHLCIPRGMCKFR
notes: as for B2
B16: Phage-1940 (peptide)
peptide: WENWCRPEWMCTGL
B17: Phage-1946 (peptide)
peptide: TEMWCKPSWMCYGF
B18: Phage-1953 (peptide)
peptide: PVKWCIPTWMCAPV
modifications: cysteine pairing not given here; also: fused to phage pIII (clonal phage display)
B19: Phage-1934 (peptide)
peptide: VSIWCRPAWMCESG
notes: as for B2
B20: Phage-1961 (peptide)
peptide: EGIWCTPAWMCMGF
B21: Phage-1954 (peptide)
peptide: HEKWCIPEWMCVVT
B22: Phage-1948 (peptide)
peptide: MDNWCTPSWMCVGF
B23: Phage-1942 (peptide)
peptide: VEKWCVPQWMCGQM
B24: Phage-1924 (peptide)
peptide: TEKLCIPEWMCFGM
notes: as for B2
B25: Phage-1936 (peptide)
peptide: WPKWCTPPWMCFQD
B26: Phage-1956 (peptide)
peptide: FAKWCTPVWMCAGL
modifications: cysteine pairing not given here; also: displayed as fusion to phage pIII
B27: Phage-1960 (peptide)
peptide: FEKWCIPDWMCQVM
B28: Phage-1959 (peptide)
peptide: WDKWCIPEWMCESM
B29: Phage-1950 (peptide)
peptide: ARRSCVFRRGCVFM
B30: Phage-1933 (peptide)
peptide: VVQWCIPAWMCAAQ
modifications: cysteine pairing not given here; also: displayed as fusion to phage pIII
notes: as for B2
B31: Phage-1941 (peptide)
peptide: GEKWCIPEWMCTTW
B32: Phage-1943 (peptide)
peptide: LEKWCIPTWMCELF
B33: Phage-1930 (peptide)
peptide: VQNWCIPAWMCQGM
notes: as for B2
B34: Phage-1937 (peptide)
peptide: FPKWCTPAWMCERS
B35: Phage-1958 (peptide)
peptide: DGKWCIPAWMCVDM
B36: Phage-1938 (peptide)
peptide: MEKWCIPSWMCDVN
B37: Phage-1921 (peptide)
peptide: VDRWCVPVWMCEGL
modifications: cysteine pairing not given here; also: displayed as fusion to phage pIII
notes: as for B2
B38: Phage-1944 (peptide)
peptide: DGKWCIPPWMCQST
B39: Phage-1955 (peptide)
peptide: GEIWCIPPWMCYAP
B40: Phage-1947 (peptide)
peptide: WINWCTPEWMCMGF
B41: Phage-1962 (peptide)
peptide: VVKWCLPPWMCTDF
B42: Phage-1922 (peptide)
peptide: LVNWCIPMWMCEGF
notes: as for B2

How the values were obtained:
[1] = target: T1, Anti-PSMA Fab (SEQ ID NOs: 19, 20); experiment: phage binding ELISA; PSMA Fab on plate pre-incubated with PSMA antigen as competitor, anti-M13 HRP detection;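 further: crude clonal phage supernatants added without washing to wells preincubated with PSMA in blocking buffer, compared with wells receiving blocking buffer only, then bound phage detected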
T1 construct: Biotinylated and captured on neutravidin coated plates in the phage ELISA; also called 006 PSMA Fab
Description: (§1) Clonal phage were harvested as crude supernatants and screened via standard ELISAs. […] Prior to the addition of clonal phage. wells were incubated with blocking buffer and PSMA antigen or blocking buffer alone. Without washing or aspirating, clonal phage supernatants were then added to the wells and incubated for a short time. Wells were then washed followed by detection of bound phage using a horse radish conjugated anti-M13 antibody.

[2] = target: T1, Anti-PSMA Fab (SEQ ID NOs: 19, 20); experiment: phage binding ELISA; biotinylated PSMA Fab on neutravidin plate, clonal phage supernatant, anti-M13 HRP detection;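 further: wells were preincubated with blocking buffer either containing PSMA antigen or without it before crude phage supernatant was added, briefly incubated, then washed prior to detection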
Description: as §1

[3] = target: T2, Anti-PSMA Fab (SEQ ID NOs: 19, 20) (biotinylated (site not stated)); experiment: phage ELISA; biotinylated PSMA Fab on neutravidin plate, clonal phage supernatant, anti-M13 HRP detection;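 further: wells preincubated with PSMA antigen in blocking buffer or with blocking buffer only before clonal phage were added for a short incubation, then bound phage detected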
T2 construct: also called 006 PSMA Fab

[4] = target: T2, Anti-PSMA Fab (SEQ ID NOs: 19, 20); experiment: phage ELISA; biotinylated PSMA Fab on neutravidin plate, wells pre-incubated with PSMA antigen as competitor, anti-M13 HRP detection
Description: as §1

[5] = target: T3, Anti-PSMA Fab (SEQ ID NOs: 19, 20); experiment: phage binding ELISA; clonal phage supernatant on biotinylated PSMA Fab captured on neutravidin plate; anti-M13-HRP detection
T3 construct: also called 006 PSMA Fab
Description: as §1

[6] = target: T3, Anti-PSMA Fab (SEQ ID NOs: 19, 20); experiment: phage binding ELISA; clonal phage supernatant on biotinylated PSMA Fab captured on neutravidin plate, wells pre-incubated with PSMA antigen (competitor: PSMA); anti-M13-HRP detection
Description: as §1

| Binder | Phage binding ELISA, Anti-PSMA Fab (SEQ ID NOs: 19, 20) signal [3] | Phage binding ELISA, Anti-PSMA Fab signal in the presence of PSMA [4] | Anti-PSMA Fab (SEQ ID NOs: 19, 20) signal [5] | Anti-PSMA Fab signal in the presence of PSMA [6] | other results |
| --- | --- | --- | --- | --- | --- |
| B1 |  |  |  |  | Phage binding ELISA, Anti-PSMA Fab signal in the presence of PSMA [1]: 0.0656; Phage binding ELISA, Anti-PSMA Fab (SEQ ID NOs: 19, 20) signal [2]: 1.92 |
| B2 | 1.97 | 0.106 |  |  |  |
| B3 |  |  | 1.96 | 0.0564 |  |
| B4 | 1.99 | 0.0938 |  |  |  |
| B5 | 1.98 | 0.0668 |  |  |  |
| B6 |  |  |  |  | Phage binding ELISA, Anti-PSMA Fab signal in the presence of PSMA [1]: 0.104; Phage binding ELISA, Anti-PSMA Fab (SEQ ID NOs: 19, 20) signal [2]: 1.93 |
| B7 | 1.98 | 0.1 |  |  |  |
| B8 |  |  |  |  | Phage binding ELISA, Anti-PSMA Fab signal in the presence of PSMA [1]: 0.0835; Phage binding ELISA, Anti-PSMA Fab (SEQ ID NOs: 19, 20) signal [2]: 1.93 |
| B9 | 1.99 | 0.0767 |  |  |  |
| B10 | 1.97 | 0.104 |  |  |  |
| B11 |  |  | 1.94 | 0.173 |  |
| B12 |  |  | 1.93 | 0.0792 |  |
| B13 | 1.99 | 0.125 |  |  |  |
| B14 | 1.96 | 0.0992 |  |  |  |
| B15 | 1.98 | 0.0668 |  |  |  |
| B16 |  |  | 1.95 | 0.0907 |  |
| B17 |  |  | 1.94 | 0.101 |  |
| B18 |  |  |  |  | Phage binding ELISA, Anti-PSMA Fab signal in the presence of PSMA [1]: 0.0978; Phage binding ELISA, Anti-PSMA Fab (SEQ ID NOs: 19, 20) signal [2]: 1.92 |
| B19 | 1.97 | 0.0809 |  |  |  |
| B20 |  |  |  |  | Phage binding ELISA, Anti-PSMA Fab signal in the presence of PSMA [1]: 0.0798; Phage binding ELISA, Anti-PSMA Fab (SEQ ID NOs: 19, 20) signal [2]: 1.91 |
| B21 |  |  |  |  | Phage binding ELISA, Anti-PSMA Fab signal in the presence of PSMA [1]: 0.0642; Phage binding ELISA, Anti-PSMA Fab (SEQ ID NOs: 19, 20) signal [2]: 1.92 |

| Binder | Phage binding ELISA, Anti-PSMA Fab (SEQ ID NOs: 19, 20) signal [3] | Phage binding ELISA, Anti-PSMA Fab signal in the presence of PSMA [4] | Anti-PSMA Fab (SEQ ID NOs: 19, 20) signal [5] | Anti-PSMA Fab signal in the presence of PSMA [6] | other results |
| --- | --- | --- | --- | --- | --- |
| B22 |  |  | 1.93 | 0.0794 |  |
| B23 |  |  | 1.95 | 0.0869 |  |
| B24 | 1.99 | 0.0644 |  |  |  |
| B25 |  |  | 1.96 | 0.148 |  |
| B26 |  |  |  |  | Phage binding ELISA, Anti-PSMA Fab signal in the presence of PSMA [1]: 0.281; Phage binding ELISA, Anti-PSMA Fab (SEQ ID NOs: 19, 20) signal [2]: 1.92 |
| B27 |  |  |  |  | Phage binding ELISA, Anti-PSMA Fab signal in the presence of PSMA [1]: 0.0817; Phage binding ELISA, Anti-PSMA Fab (SEQ ID NOs: 19, 20) signal [2]: 1.91 |
| B28 |  |  |  |  | Phage binding ELISA, Anti-PSMA Fab signal in the presence of PSMA [1]: 0.0718; Phage binding ELISA, Anti-PSMA Fab (SEQ ID NOs: 19, 20) signal [2]: 1.92 |
| B29 |  |  | 1.93 | 0.0701 |  |
| B30 | 1.97 | 0.0955 |  |  |  |
| B31 |  |  | 1.95 | 0.135 |  |
| B32 |  |  | 1.94 | 0.175 |  |
| B33 | 1.98 | 0.0574 |  |  |  |
| B34 |  |  | 1.96 | 0.0909 |  |
| B35 |  |  |  |  | Phage binding ELISA, Anti-PSMA Fab signal in the presence of PSMA [1]: 0.0672; Phage binding ELISA, Anti-PSMA Fab (SEQ ID NOs: 19, 20) signal [2]: 1.92 |
| B36 |  |  | 1.96 | 0.0785 |  |
| B37 | 1.99 | 0.124 |  |  |  |
| B38 |  |  | 1.94 | 0.077 |  |
| B39 |  |  |  |  | Phage binding ELISA, Anti-PSMA Fab signal in the presence of PSMA [1]: 0.0825; Phage binding ELISA, Anti-PSMA Fab (SEQ ID NOs: 19, 20) signal [2]: 1.92 |
| B40 |  |  | 1.94 | 0.24 |  |
| B41 |  |  |  |  | Phage binding ELISA, Anti-PSMA Fab signal in the presence of PSMA [1]: 0.0829; Phage binding ELISA, Anti-PSMA Fab (SEQ ID NOs: 19, 20) signal [2]: 1.91 |
| B42 | 1.99 | 0.107 |  |  |  |
